# From the MegaScale stability set (Tsuboyama et al. 2023)
# B1: 2K2A (parent)
# chain: ELREAFRLYDKEGNGYISTDVMREILAELDETLSSEDLDAMIDEIDADGSGTVDFEEFMGVMT
# Variants of: B1
# Assay: folding stability dG (cDNA display proteolysis); higher = more stable
# Conditions: PBS, room temperature
row,Variant,folding stability dG [kcal/mol]
1,ELREAFRLYDKEGNGYISTDVMREILAELDETLSSEDLDAPIDEIDADGSGTVDFEEFMGVMT [M41P],-0.862
2,ELREAFRLYDKEGNGYISTDVMREILAELDETLSSEDLDALIDEIDADGSGTVDFEEFMGVMT [M41L],2.03
3,ELREAFRLYDKEGNGYISTDVMREILAELDETLSSEDLDAYIDEIDADGSGTVDFEEFMGVMT [M41Y],1.61
4,ELREAFRLYDKEGNGYISTDVMREILAELDETLSSEDLDAEIDEIDADGSGTVDFEEFMGVMT [M41E],-0.173
5,ELREAFRLYDKEGNGYISTDVMREILAELDETLSSEDLDANIDEIDADGSGTVDFEEFMGVMT [M41N],-0.4
6,ELREAFRLYDKEGNGYISTDVMREILAELDETLSSEDLDAVIDEIDADGSGTVDFEEFMGVMT [M41V],1.21
7,ELREAFRLYDKEGNGYISTDVMREILAELDETLSSEDLDACIDEIDADGSGTVDFEEFMGVMT [M41C],1.37
8,ELREAFRLYDKEGNGYISTDVMREILAELDETLSSEDLDADIDEIDADGSGTVDFEEFMGVMT [M41D],-0.547
9,ELREAFRLYDKEGNGYISTDVMREILAELDETLSSEDLDAHIDEIDADGSGTVDFEEFMGVMT [M41H],0.645
10,ELREAFRLYDKEGNGYISTDVMREILAELDETLSSEDLDAGIDEIDADGSGTVDFEEFMGVMT [M41G],0.01
11,ELREAFRLYDKEGNGYISTDVMREILAELDETLSSEDLDASIDEIDADGSGTVDFEEFMGVMT [M41S],0.166
12,ELREAFRLYDKEGNGYISTDVMREILAELDETLSSEDLDARIDEIDADGSGTVDFEEFMGVMT [M41R],1.47
13,ELREAFRLYDKEGNGYISTDVMREILAELDETLSSEDLDATIDEIDADGSGTVDFEEFMGVMT [M41T],0.556
14,ELREAFRLYDKEGNGYISTDVMREILAELDETLSSEDLDAQIDEIDADGSGTVDFEEFMGVMT [M41Q],0.887
15,ELREAFRLYDKEGNGYISTDVMREILAELDETLSSEDLDAKIDEIDADGSGTVDFEEFMGVMT [M41K],1.49
16,ELREAFRLYDKEGNGYISTDVMREILAELDETLSSEDLDAAIDEIDADGSGTVDFEEFMGVMT [M41A],1.27
17,ELREAFRLYDKEGNGYISTDVMREILAELDETLSSEDLDAWIDEIDADGSGTVDFEEFMGVMT [M41W],2.43
18,ELREAFRLYDKEGNGYISTDVMREILAELDETLSSEDLDAIIDEIDADGSGTVDFEEFMGVMT [M41I],1.86
19,ELREAFRLYDKEGNGYISTDVMREILAELDETLSSEDLDAFIDEIDADGSGTVDFEEFMGVMT [M41F],1.5
20,ELREAFRLYDKEGNGYISTDVMREILAELDETLSSEDLDAMHDEIDADGSGTVDFEEFMGVMT [I42H],-0.459
21,ELREAFRLYDKEGNGYISTDVMREILAELDETLSSEDLDAMLDEIDADGSGTVDFEEFMGVMT [I42L],1.73
22,ELREAFRLYDKEGNGYISTDVMREILAELDETLSSEDLDAMDDEIDADGSGTVDFEEFMGVMT [I42D],-0.854

row,Variant,folding stability dG [kcal/mol]
1,ELREAFRLYDKEGNGYISTDVMREILAELDETLSSEDLDAMADEIDADGSGTVDFEEFMGVMT [I42A],-0.231
2,ELREAFRLYDKEGNGYISTDVMREILAELDETLSSEDLDAMEDEIDADGSGTVDFEEFMGVMT [I42E],-0.498
3,ELREAFRLYDKEGNGYISTDVMREILAELDETLSSEDLDAMKDEIDADGSGTVDFEEFMGVMT [I42K],-0.287
4,ELREAFRLYDKEGNGYISTDVMREILAELDETLSSEDLDAMCDEIDADGSGTVDFEEFMGVMT [I42C],0.098
5,ELREAFRLYDKEGNGYISTDVMREILAELDETLSSEDLDAMGDEIDADGSGTVDFEEFMGVMT [I42G],-0.688
6,ELREAFRLYDKEGNGYISTDVMREILAELDETLSSEDLDAMMDEIDADGSGTVDFEEFMGVMT [I42M],1.72
7,ELREAFRLYDKEGNGYISTDVMREILAELDETLSSEDLDAMNDEIDADGSGTVDFEEFMGVMT [I42N],-0.359
8,ELREAFRLYDKEGNGYISTDVMREILAELDETLSSEDLDAMFDEIDADGSGTVDFEEFMGVMT [I42F],1.08
9,ELREAFRLYDKEGNGYISTDVMREILAELDETLSSEDLDMMIDEIDADGSGTVDFEEFMGVMT [A40M],1.76
10,ELREAFRLYDKEGNGYISTDVMREILAELDETLSSEDLDNMIDEIDADGSGTVDFEEFMGVMT [A40N],1.73
11,ELREAFRLYDKEGNGYISTDVMREILAELDETLSSEDLDYMIDEIDADGSGTVDFEEFMGVMT [A40Y],1.71
12,ELREAFRLYDKEGNGYISTDVMREILAELDETLSSEDLDQMIDEIDADGSGTVDFEEFMGVMT [A40Q],1.8
13,ELREAFRLYDKEGNGYISTDVMREILAELDETLSSEDLDKMIDEIDADGSGTVDFEEFMGVMT [A40K],2.11
14,ELREAFRLYDKEGNGYISTDVMREILAELDETLSSEDLDLMIDEIDADGSGTVDFEEFMGVMT [A40L],1.85
15,ELREAFRLYDKEGNGYISTDVMREILAELDETLSSEDLDSMIDEIDADGSGTVDFEEFMGVMT [A40S],1.73
16,ELREAFRLYDKEGNGYISTDVMREILAELDETLSSEDLDIMIDEIDADGSGTVDFEEFMGVMT [A40I],1.77
17,ELREAFRLYDKEGNGYISTDVMREILAELDETLSSEDLDWMIDEIDADGSGTVDFEEFMGVMT [A40W],1.6
18,ELREAFRLYDKEGNGYISTDVMREILAELDETLSSEDLDVMIDEIDADGSGTVDFEEFMGVMT [A40V],1.69
19,ELREAFRLYDKEGNGYISTDVMREILAELDETLSSEDLDRMIDEIDADGSGTVDFEEFMGVMT [A40R],2.31
20,ELREAFRLYDKEGNGYISTDVMREILAELDETLSSEDLDPMIDEIDADGSGTVDFEEFMGVMT [A40P],-0.715
21,ELREAFRLYDKEGNGYISTDVMREILAELDETLSSEDLDTMIDEIDADGSGTVDFEEFMGVMT [A40T],1.57
